From patent publication US7423021

Assays:
human thrombin (human) [1] = target: human thrombin (human) (UniProt P00734); assay: cell-based or functional assay
human thrombin (human) [2] = target: human thrombin (human) (UniProt P00734); assay: competitive inhibition of human thrombin hydrolysis of the fluorogenic substrate Tos-Gly-Pro-Arg-AMC, Hanes analysis

| inhibition of the amidase activity of thrombin at 1 µM peptide (human thrombin (human) [1]) | inhibition of the amidase activity of thrombin at 250 nM peptide (human thrombin (human) [1]) | Substance | other results |
| --- | --- | --- | --- |
| 44% | – | N-acetyl-L-Ala-L-Cha-D-Pro-D-Tyr-L-Arg amide (peptide) | – |
| – | 89% | N-acetyl-L-Nle-D-Cha-L-Aze-D-Tyr-L-Har amide (peptide) | – |
| 47% | – | N-acetyl-D-Tyr-L-Cha-D-Pro-D-Tyr-L-Arg amide (peptide) | – |
| 63% | – | N-acetyl-L-Ala-D-Cha-L-Aze-D-Tyr-L-Arg amide (peptide) | – |
| 47% | – | N-acetyl-L-Ser-L-Ala-L-Cha-D-Pro-D-Tyr-L-Arg amide (peptide) | – |
| 55% | – | N-acetyl-L-Tyr-L-Cit-L-Cha-D-Pro-D-Tyr-L-Arg amide (peptide) | – |
| – | – | Tranexamic acid-D-Cha-L-Aze-D-Try-L-Har amide (peptide) | Ki (human thrombin (human) [2]): 7 nM |
| – | 77% | N-acetyl-L-Ala-D-Cha-L-Aze-D-Tyr-L-Har amide (peptide) | – |
| – | 72% | N-acetyl-L-Pnp-D-Cha-L-Aze-D-Tyr-L-Har amide (peptide) | – |
| 51% | – | N-acetyl-L-Ser-L-Arg-L-Cha-D-Pro-D-Tyr-L-Arg amide (peptide) | – |
| – | 76% | N-acetyl-L-Ppd-D-Cha-L-Aze-D-Tyr-L-Har amide (peptide) | – |
| 51% | – | N-acetyl-D-Val-D-His-L-Cha-D-Pro-D-Tyr-L-Arg amide (peptide) | – |
| 48% | – | N-acetyl-D-Lys-L-Nle-L-Cha-D-Pro-D-Tyr-L-Arg amide (peptide) | – |
| – | 74% | N-acetyl-L-Tea-D-Cha-L-Aze-D-Tyr-L-Har amide (peptide) | – |
| 45% | – | N-acetyl-D-Val-L-Cha-D-Pro-D-Tyr-L-Arg amide (peptide) | – |
| 58% | – | N-acetyl-D-Glu-L-Cha-D-Pro-D-Tyr-L-Arg amide (peptide) | – |

| inhibition of the amidase activity of thrombin at 1 µM peptide (human thrombin (human) [1]) | inhibition of the amidase activity of thrombin at 250 nM peptide (human thrombin (human) [1]) | Substance | other results |
| --- | --- | --- | --- |
| – | 80% | N-acetyl-L-Nhm-D-Cha-L-Aze-D-Tyr-L-Har amide (peptide) | – |
| – | 90% | N-acetyl-L-Cha-D-Cha-L-Aze-D-Tyr-L-Har amide (peptide) | – |
| – | 95% | N-acetyl-L-Phg-D-Cha-L-Aze-D-Tyr-L-Har amide (peptide) | – |
| – | – | Trans-4-(guanidinomethyl)cyclohexanecarboxylic acid-D-Cha-L-Aze-D-Try-L-Har amide (peptide) | Ki (human thrombin (human) [2]): 3 nM |
| 47% | – | N-acetyl-L-Arg-L-Cha-D-Pro-D-Tyr-L-Arg amide (peptide) | – |
| – | 77% | N-acetyl-D-Phe-D-Cha-L-Aze-D-Tyr-L-Har amide (peptide) | – |
| – | 76% | N-acetyl-L-Trp-D-Cha-L-Aze-D-Tyr-L-Har amide (peptide) | – |
| 61% | – | N-acetyl-L-Ile-L-Arg-L-Cha-D-Pro-D-Tyr-L-Arg amide (peptide) | – |
| 63% | – | N-acetyl-L-Trp-L-Cha-D-Pro-D-Tyr-L-Arg amide (peptide) | – |
| 59% | – | N-acetyl-D-Gln-D-His-L-Cha-D-Pro-D-Tyr-L-Arg amide (peptide) | – |
| 40% | – | N-acetyl-L-Ser-L-Ser-L-Cha-D-Pro-D-Tyr-L-Arg amide (peptide) | – |
| – | 72% | N-acetyl-L-Iq3-D-Cha-L-Aze-D-Tyr-L-Har amide (peptide) | – |
| 44% | – | N-acetyl-L-Tyr-D-Pro-L-Cha-D-Pro-D-Tyr-L-Arg amide (peptide) | – |
| – | 75% | N-acetyl-L-Dcp-D-Cha-L-Aze-D-Tyr-L-Har amide (peptide) | – |
| 56% | – | N-acetyl-L-Ala-D-Cha-L-Pro-D-Tyr-L-Har amide (peptide) | – |
